The results in this text go back to US20230357367A1.

What all share (experiment): DELFIA, IgG titrated on captured biotin-peptide
What all share (design): unit not given beside the values

For test [1], the target named is SARS-CoV-2 spike S2 peptide 1141-1155, biotinylated (SARS-CoV-2).
Test [2] deals with SARS-CoV-2 spike S2 peptide 1149-1163, biotinylated (SARS-CoV-2).
The target in test [3] is SARS-CoV-2 spike S2 peptide 1145-1159, biotinylated (SARS-CoV-2).
The target of test [4] is SARS-CoV-2 spike S2 peptide 1137-1151, biotinylated (SARS-CoV-2).
Test [5] addresses SARS-CoV-2 spike S2 peptide 1153-1167, biotinylated (SARS-CoV-2).
For test [6], the target named is SARS-CoV-2 spike S2 peptide 1143-1162 (stem helix region), biotinylated (SARS-CoV-2).
The target of test [7] is SARS-CoV-2 spike S2 peptide 1149-1167 (C-terminal end of the stem helix), biotinylated (SARS-CoV-2).
The target of test [8] is SARS-CoV-2 spike S2 peptide 1133-1147, biotinylated (SARS-CoV-2).
The target in test [9] is SARS-CoV-2 spike S2 peptide 1157-1171, biotinylated (SARS-CoV-2).

B1: AB-1 (antibody, V domains shown)
VH: EVQLVESGAEVKKPGESLKISCKGSGYTFTRYWIGWVRQMPGKGLEWMGIIYPGDSDVRYSPSFQGHVTISADKSISTAYLQWNSLKASDTAMYYCARLPQYCSKGVCYRWFDPWGQGTLVTVSS
VL: EIVLTQSPSSVSASVGDRVTITCRASQGISSWLAWYQQKPGKAPKLLIYAASSLQSGVPSRFSGSGSGTDFTLTISSLQPEDFATYYCQQGHSFPYTFGQGTNLEIK
B1: the AUC in [1] came out at 18000; in [2], 3.52e+06; in [3], 1.7e+06; in [4] it was 21500; in test [5], 3.32e+06; in [6], 3.52e+06. For the same molecule, the AUC in test [7] was 3.27e+06; in [8], 27100; in test [9], 30000.
